This is an account of results in article PMC2994726 (PLoS ONE, 2010).

Experiment [1] concerns the target FLAG-tagged rat AT1a receptor DRY/AAY truncated after serine 331 (DRY/AAY 331Δ) (rat) (UniProt P25095). Put plainly: radioligand binding; whole-cell heterologous competition on transfected COS-7 cells: 1 nM 3H-Ang II tracer and increasing unlabeled SII Ang II, 3 h at 4°C; pKi calculated from Ang II KD values of experiments run in parallel.
Experiment [2] deals with FLAG-tagged rat AT1a receptor DRY/AAY, full length (rat) (UniProt P25095). The description is as above.
The target of experiment [3] is Luc-tagged rat AT1a receptor DRY/AAY truncated after serine 331 (DRY/AAY 331Δ) (rat) (UniProt P25095). Put plainly: FRET or BRET; BRET2 in live HEK293 cells co-transfected with Luc-tagged rAT1aR and GFP2-β-arrestin2; dose-response to Ang II, read 15 min after agonist addition. (In BRET a luciferase serves as donor, and the signal depends on an acceptor being close.)
For experiment [4], the target named is Luc-tagged rat AT1a receptor DRY/AAY, full length (rat) (UniProt P25095). The experiment is described as above.
For experiment [5], the target named is Luc-tagged rat AT1a receptor DRY/AAY truncated after serine 331 (DRY/AAY 331Δ) (rat) (UniProt P25095). Put plainly: FRET or BRET; BRET2 in live HEK293 cells co-transfected with Luc-tagged rAT1aR and GFP2-β-arrestin2; dose-response to SII Ang II, read 15 min after agonist addition.
Experiment [6] deals with Luc-tagged rat AT1a receptor DRY/AAY, full length (rat) (UniProt P25095). Described as above.
The target of experiment [7] is T1, FLAG-tagged rat AT1a receptor (rAT1aR), WT, full length (rat, UniProt P25095 1-359).
T1 construct: Angiotensin II type 1a receptor (AT1aR), rat, full length; also called AT1R; Angiotensin II type 1 receptor; source: COS-7, transiently transfected, on whole cells; not shown: FLAG, N-terminal, kept
T1 sequence (looked up): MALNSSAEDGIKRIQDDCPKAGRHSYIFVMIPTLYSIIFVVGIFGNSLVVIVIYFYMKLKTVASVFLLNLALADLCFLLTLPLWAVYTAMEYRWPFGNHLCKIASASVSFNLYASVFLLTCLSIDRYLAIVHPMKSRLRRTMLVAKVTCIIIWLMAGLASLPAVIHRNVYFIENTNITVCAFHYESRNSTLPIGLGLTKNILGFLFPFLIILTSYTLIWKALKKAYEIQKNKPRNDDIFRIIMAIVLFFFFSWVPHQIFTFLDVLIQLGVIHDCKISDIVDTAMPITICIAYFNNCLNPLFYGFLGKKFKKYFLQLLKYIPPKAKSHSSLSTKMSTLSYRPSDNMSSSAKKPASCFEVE
Put plainly: radioligand binding; whole-cell heterologous competition on transfected COS-7 cells: 1 nM 3H-Ang II tracer and increasing unlabeled SII Ang II, 3 h at 4°C; pKi calculated from Ang II KD values of experiments run in parallel. As to conditions: one partner purified.

The target in experiment [8] is T2, FLAG-tagged rat AT1a receptor WT truncated after serine 331 (WT 331Δ) (rat, UniProt P25095 1-331).
T2 construct: source: COS-7, transiently transfected, on whole cells; not shown: FLAG, N-terminal, kept
T2 sequence (looked up): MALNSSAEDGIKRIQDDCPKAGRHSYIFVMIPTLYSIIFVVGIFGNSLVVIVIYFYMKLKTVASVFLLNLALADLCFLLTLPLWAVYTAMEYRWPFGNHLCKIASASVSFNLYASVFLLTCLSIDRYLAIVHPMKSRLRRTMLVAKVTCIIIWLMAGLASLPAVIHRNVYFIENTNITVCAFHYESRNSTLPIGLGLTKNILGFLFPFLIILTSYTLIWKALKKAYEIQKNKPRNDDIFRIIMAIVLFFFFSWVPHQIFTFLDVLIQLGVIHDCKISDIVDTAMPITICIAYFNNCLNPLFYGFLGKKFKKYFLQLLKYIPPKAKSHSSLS
The description is as above. As to conditions: one partner purified.

Usually pKi stands for the negative decadic logarithm of the Ki, by convention in mol/L. For Sar1-Ile4-Ile8 (SII) Ang II (peptide), the pKi in experiment [1] is 6.2; in experiment [2] it was 6.1.

In the case of “GFP2-tagged β-arrestin2 (from UniProt P32121 1-409) (natural protein)”, the pEC50 of Ang II for induced recruitment (BRET2) in experiment [3] and in experiment [4] was 8.2 each time. Further, the pEC50 of SII Ang II for induced recruitment (BRET2, from normalized curves) in experiment [5] is 7. The same molecule yielded a pEC50 of SII Ang II for induced recruitment (BRET2) in experiment [6] of 7.5.

B1: Sar1-Ile4-Ile8 (SII) Ang II (peptide)
chain: GRVIIHPI
modifications: sarcosine at position 1 (Sar1)
Regarding B1, the pKi in experiment [7] was 5.9; in experiment [8], 6.
